We go through four molecules from patent US20250144205A1, “COMPOSITIONS AND METHODS FOR TREATING INFECTIOUS DISEASES” (priority 2022, published 2025).

In assay [1] the test system is TSE-induced lung injury (TSE-LI). As to the kind of experiment: chronic tobacco smoke exposure induced lung injury (TSE-LI) in wild-type mice. Type of assay: in vivo. To be noted: for MUC5AC (M5Ac) expression (lung mRNA by qPCR, IHC) / FOXA2 mRNA (qPCR) / surfactant protein-C (SP-C) mRNA (qPCR): WT mice with TSE-LI, 2.5 mg/kg IP 5 days a week for 4 weeks; for MUC5AC (M5Ac) expression (lung mRNA by qPCR, IHC): FIG. 12A, 12D; for FOXA2 mRNA (qPCR): FIG. 12B; for surfactant protein-C (SP-C) mRNA (qPCR): FIG. 12C; for chronic TS exposure (TSE) induced lung injury (TSE-LI): WT mice, 2.5 mg/kg IP 5 days a week for 4 weeks after 16 weeks TSE. Here is the method:
Recombinant full-length U5a protein (U5a^FL), extracellular domain of U5a^FL (U5a^ECD) and U5a^ECD-specific monoclonal antibody (U5a^mAb, the 17C9 1 anti-U5a antibody comprising the sequences of SEQ ID NOs. 204 and 211) mitigated chronic TS exposure (TSE) induced lung injury (TSE-LI) in wild-type (WT) mice. WT mice were kept in ambient AIR or exposed to tobacco smoke (TSE) for 4 h/day 5 days a week. After 16 weeks, WT mice with TSE-LI were left untreated (None) or treated with 2.5 mg/kg of U5a^FL, U5a^ECD and U5amAb 5 days a week for 4 weeks by IP injection. Total lung RNA were analyzed for MUC5AC (M5Ac) (FIG. 12A), FOXA2 (FIG. 12B) and surfactant protein-C(SP-C) (FIG. 12C) mRNA by qPCR. Lung sections of mice treated as in FIG. 12A were subjected to IHC analysis for M5Ac (FIG. 12D). We found increased expression of U5a in AECs and ATII cells in lungs of patients with COPD and mice with TSE-LI. […] In addition, increased surfactant protein-C(SP-C) indicates improved survival of ATII cells, which is otherwise reduced due to increased TSE-induced senescence and apoptosis of ATII cells seen in mice with TSE-LI left untreated.
In general terms: Quantitative PCR measures a nucleic acid by following its amplification.

The subject of assay [2] is rSARS-CoV-2/mCherry-Nluc. Type of assay: in vivo, K18 hACE2 transgenic mice. Conditions: for virus titration in lungs (viral titers by plaque assay): 2.5 mg/kg i.p. once daily, compared to the mock groups, FIG. 8A; for body weight and survival: mouse, in vivo.

B1: U5a^mAb: U5a^ECD-specific monoclonal antibody, the 17C9 1 anti-U5a antibody comprising the sequences of SEQ ID NOs. 204 and 211 (antibody)
heavy: QVQLQQPGAELVKPGASVKMSCKASGYTFTSYWITWVKQRPGQGLEWIGDIYPGSGSTTYNEKFKSKATLTVDTSSSTAYMQLSSLTSEDSAVYYCARRHYGSSSAWFAYWGQGTLVTVSAAKTTPPSVYPLAPGSAAQTNSMVTLGCLVKGYFPEPVTVTWNSGSLSSGVHTFPAVLQSDLYTLSSSVTVPSSTWPSQTVTCNVAHPASSTKVDKKIVPRDCGCKPCICTVPEVSSVFIFPPKPKDVLTITLTPKVTCVVVDISKDDPEVQFSWFVDDVEVHTAQTKPREEQINSTFRSVSELPIMHQDWLNGKEFKCRVNSAAFPAPIEKTISKTKGRPKAPQVYTIPPPKEQMAKDKVSLTCMITNFFPEDITVEWQWNGQPAENYKNTQPIMDTDGSYFVYSKLNVQKSNWEAGNTFTCSVLHEGLHNHHTEKSLSHSPGK
light: DIQMTQTTSSLSASLGDRVTISCSASQGIRNYLNWYQQKPDGTVKLLIYYTSSLHSGVPSRFSGSGSGTDYSLTISNLEPEDIATYYCQQYSKLPFTFGSGTKLEIKRADAAPTVSIFPPSSEQLTSGGASVVCFLNNFYPKDINVKWKIDGSERQNGVLNSWTDQDSKDSTYSMSSTLTLTKDEYERHNSYTCEATHKTSTSPIVKSFNRNEC
With B1, in assay [1], the “MUC5AC (M5Ac) expression (lung mRNA by qPCR, IHC)” value is listed as “significantly inhibits”; the “FOXA2 mRNA (qPCR)” value is on record as “inducing”; the “surfactant protein-C (SP-C) mRNA (qPCR)” value is on record as “increased”; the “chronic TS exposure (TSE) induced lung injury (TSE-LI)” value is given as “mitigated”.

B2: M^9ECD: extracellular domain (ECD) fragment of recombinant M9 (MEGF9); ECD of MEGF9 given as SEQ ID NO: 102 (protein, listed as Homo sapiens)
chain: MGWSCIILFLVATATGVHSAAVASAASAGNVTGGGGAAGQVDASPGPGLRGEPSHPFPRATAPTAQAPRTGPPRATVHRPLAATSPAQSPETTPLWATAGPSSTTFQAPLGPSPTTPPAAERTSTTSQAPTRPAPTTLSTTTGPAPTTPVATTVPAPTTPRTPTPDLPSSSNSSVLPTPPATEAPSSPPPGHQWPVAKMPQKYLGKYACESNLKSKYLPLTQPVMNLRVSEAVKTEYVCNCSVVGSLNVNRCNQTTGQCECRPGYQGLHCETCKEGFYLNYTSGLCQPCDCSPHGALSIPCNSSGKCQCKVGVIGSICDRCQDGYYGFSKNGCLPCQCNNRSASCDALTGACLNCQENSKGNHCEECKEGFYQSPDATKECLRCPCSAVTSTGSCSIKSSELEPECDQCKDGYIGPNCNKCENGYYNFDSICRKCQCHGHVDPVKTPKICKPESGECINCLHNTTGFWCENCLEGYVHDLEGNCIKKEVILPTPEGSTILVSNASLTTSVPTPVINSTFTPTTLQTIFSVSTSENSTSALADVSWTQFN
With B2, in assay [2], the “virus titration in lungs (viral titers by plaque assay)” value is “clear trend of decreased viral titers”; the “body weight and survival” value was “remarkable improvement”.

B3: M9^FL: recombinant full length MEGF9 (multiple EGF-like-domains-9); full-length human MEGF9 is SEQ ID NO: 1 (protein, listed as Homo sapiens)
chain: MNGGAERAMRSLPSLGGLALLCCAAAAAAAAVASAASAGNVTGGGGAAGQVDASPGPGLRGEPSHPFPRATAPTAQAPRTGPPRATVHRPLAATSPAQSPETTPLWATAGPSSTTFQAPLGPSPTTPPAAERTSTTSQAPTRPAPTTLSTTTGPAPTTPVATTVPAPTTPRTPTPDLPSSSNSSVLPTPPATEAPSSPPPEYVCNCSVVGSLNVNRCNQTTGQCECRPGYQGLHCETCKEGFYLNYTSGLCQPCDCSPHGALSIPCNSSGKCQCKVGVIGSICDRCQDGYYGFSKNGCLPCQCNNRSASCDALTGACLNCQENSKGNHCEECKEGFYQSPDATKECLRCPCSAVTSTGSCSIKSSELEPECDQCKDGYIGPNCNKCENGYYNFDSICRKCQCHGHVDPVKTPKICKPESGECINCLHNTTGFWCENCLEGYVHDLEGNCIKKEVILPTPEGSTILVSNASLTTSVPTPVINSTFTPTTLQTIFSVSTSENSTSALADVSWTQFNIIILTVIIIVVVLLMGFVGAVYMYREYQNRKLNAPFWTIELKEDNISFSSYHDSIPNADVSGLLEDDGNEVAPNGQLTLTTPIHNYKA
B3: in assay [2], the “virus titration in lungs (viral titers by plaque assay)” value is recorded as “clear trend of decreased viral titers”; the “body weight and survival” value was “remarkable improvement”.

B4: U5a^FL: Recombinant full-length U5a protein (uncoordinated receptor 5A); full-length human UNC5A is SEQ ID NO: 5 (protein, listed as Homo sapiens)
chain: MAVRPGLWPALLGIVLAAWLRGSGAQQSATVANPVPGANPDLLPHFLVEPEDVYIVKNKPVLLVCKAVPATQIFFKCNGEWVRQVDHVIERSTDGSSGLPTMEVRINVSRQQVEKVFGLEEYWCQCVAWSSSGTTKSQKAYIRIAYLRKNFEQEPLAKEVSLEQGIVLPCRPPEGIPPAEVEWLRNEDLVDPSLDPNVYITREHSLVVRQARLADTANYTCVAKNIVARRRSASAAVIVYVDGSWSPWSKWSACGLDCTHWRSRECSDPAPRNGGEECQGTDLDTRNCTSDLCVHTASGPEDVALYVGLIAVAVCLVLLLLVLILVYCRKKEGLDSDVADSSILTSGFQPVSIKPSKADNPHLLTIQPDLSTTTTTYQGSLCPRQDGPSPKFQLTNGHLLSPLGGGRHTLHHSSPTSEAEEFVSRLSTQNYFRSLPRGTSNMTYGTFNFLGGRLMIPNTGISLLIPPDAIPRGKIYEIYLTLHKPEDVRLPLAGCQTLLSPIVSCGPPGVLLTRPVILAMDHCGEPSPDSWSLRLKKQSCEGSWEDVLHLGEEAPSHLYYCQLEASACYVFTEQLGRFALVGEALSVAAAKRLKLLLFAPVACTSLEYNIRVYCLHDTHDALKEVVQLEKQLGGQLIQEPRVLHFKDSYHNLRLSIHDVPSSLWKSKLLVSYQEIPFYHIWNGTQRYLHCTFTLERVSPSTSDLACKLWVWQVEGDGQSFSINFNITKDTRFAELLALESEAGVPALVGPSAFKIPFLIRQKIISSLDPPCRRGADWRTLAQKLHLDSHLSFFASKPSPTAMILNLWEARHFPNGNLSQLAAAVAGLGQPDAGLFTVSEAEC
For B4, in assay [1], the “MUC5AC (M5Ac) expression (lung mRNA by qPCR, IHC)” value is given as “significantly inhibits”; the “FOXA2 mRNA (qPCR)” value was “inducing”; the “surfactant protein-C (SP-C) mRNA (qPCR)” value is on record as “increased”; the “chronic TS exposure (TSE) induced lung injury (TSE-LI)” value is “mitigated”.
